The text below walks through data of paper PMC8195445.

Assay [1] addresses GST-calmodulin N-half (CaM-N, residues 1–74) (UniProt P0DP23). Briefly: pull-down.
The target in assay [2] is GST-calmodulin C-half (CaM-C, residues 75–148) (UniProt P0DP23). Briefly: pull-down.

As for “IQGAP1 IQ domain (amino acids 717–916) IQ3R mutant (from UniProt P46940 717-916) (domain or fragment)”, the percent of the binding of IQ3R to Ca2+-CaM-F in assay [1] worked out at 27%; in assay [2] it was 15%.
For “IQGAP1 wild-type IQ domain (amino acids 717–916) (from UniProt P46940 717-916) (domain or fragment)”, the percent of the binding to Ca2+-CaM-F in assay [1] is 32%.
